Experimental data as given in patent publication US20210063414A1, “METHODS FOR PREVENTING AND/OR TREATING BONE LOSS CONDITIONS BY MODULATING IRISIN” (Dana-Farber Cancer Institute, Inc., priority 2018, published 2021).

Columns and labels:
[1] = target: T1, Integrin beta-5 (Itgb5) of MLO-Y4 cells (mouse) (UniProt O70309); assay: DTSSP cross-linking on MLO-Y4 cells, his-tag pull-down, TMT mass spectrometry; adipsin (control) channel
T1 sequence (looked up): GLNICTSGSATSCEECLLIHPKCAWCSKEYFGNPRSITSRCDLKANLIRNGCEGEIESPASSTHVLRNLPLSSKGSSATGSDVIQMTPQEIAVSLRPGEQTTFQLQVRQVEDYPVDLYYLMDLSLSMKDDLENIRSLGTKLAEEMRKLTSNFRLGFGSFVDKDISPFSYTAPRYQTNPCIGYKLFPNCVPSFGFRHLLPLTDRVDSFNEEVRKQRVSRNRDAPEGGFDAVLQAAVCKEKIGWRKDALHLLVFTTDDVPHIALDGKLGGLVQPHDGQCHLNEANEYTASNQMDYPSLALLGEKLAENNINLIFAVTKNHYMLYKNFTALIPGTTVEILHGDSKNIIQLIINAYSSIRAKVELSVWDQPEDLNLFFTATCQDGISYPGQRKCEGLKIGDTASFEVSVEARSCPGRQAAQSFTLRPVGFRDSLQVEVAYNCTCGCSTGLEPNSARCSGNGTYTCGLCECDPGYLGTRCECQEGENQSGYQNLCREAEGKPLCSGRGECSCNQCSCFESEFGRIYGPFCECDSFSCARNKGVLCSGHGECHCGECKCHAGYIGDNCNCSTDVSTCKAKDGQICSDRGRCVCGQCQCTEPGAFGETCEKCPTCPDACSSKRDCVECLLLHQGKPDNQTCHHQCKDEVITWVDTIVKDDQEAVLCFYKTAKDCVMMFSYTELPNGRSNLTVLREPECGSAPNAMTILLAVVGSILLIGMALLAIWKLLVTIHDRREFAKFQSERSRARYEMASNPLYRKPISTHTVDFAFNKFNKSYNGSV

[2] = target: T2, Integrin alpha-V (Itgav) of MLO-Y4 cells (mouse) (UniProt P43406); assay: as above
T2 sequence (looked up): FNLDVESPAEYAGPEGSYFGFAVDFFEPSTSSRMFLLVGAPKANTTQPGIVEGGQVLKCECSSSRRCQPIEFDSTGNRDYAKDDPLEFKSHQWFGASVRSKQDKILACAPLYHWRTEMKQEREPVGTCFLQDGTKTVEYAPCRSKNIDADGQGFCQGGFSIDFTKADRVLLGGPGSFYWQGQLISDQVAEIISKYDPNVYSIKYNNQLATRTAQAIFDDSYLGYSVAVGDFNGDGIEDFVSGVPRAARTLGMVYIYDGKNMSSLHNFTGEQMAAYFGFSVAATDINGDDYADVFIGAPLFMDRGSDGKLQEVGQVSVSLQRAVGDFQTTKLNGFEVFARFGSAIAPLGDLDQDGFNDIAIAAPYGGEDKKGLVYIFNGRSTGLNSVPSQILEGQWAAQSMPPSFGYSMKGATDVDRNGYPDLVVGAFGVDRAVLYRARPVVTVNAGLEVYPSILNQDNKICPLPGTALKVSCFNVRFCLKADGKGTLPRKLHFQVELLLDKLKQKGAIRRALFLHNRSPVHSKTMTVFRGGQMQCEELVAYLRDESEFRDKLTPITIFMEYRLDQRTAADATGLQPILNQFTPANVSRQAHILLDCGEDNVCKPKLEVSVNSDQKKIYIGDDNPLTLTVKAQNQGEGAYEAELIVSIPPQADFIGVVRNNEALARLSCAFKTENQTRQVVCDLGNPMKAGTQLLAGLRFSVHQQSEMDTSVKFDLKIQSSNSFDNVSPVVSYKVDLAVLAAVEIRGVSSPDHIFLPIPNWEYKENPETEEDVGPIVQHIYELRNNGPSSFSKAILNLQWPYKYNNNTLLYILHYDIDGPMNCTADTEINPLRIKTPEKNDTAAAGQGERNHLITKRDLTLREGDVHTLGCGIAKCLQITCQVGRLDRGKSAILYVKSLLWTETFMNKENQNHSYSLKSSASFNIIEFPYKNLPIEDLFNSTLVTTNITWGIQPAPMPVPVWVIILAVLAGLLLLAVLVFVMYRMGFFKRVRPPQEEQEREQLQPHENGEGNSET

[3] = target: T3, Membrane magnesium transporter 1 (Mmgt1) of MLO-Y4 cells (mouse) (UniProt Q8K273); assay: as above
T3 sequence (looked up): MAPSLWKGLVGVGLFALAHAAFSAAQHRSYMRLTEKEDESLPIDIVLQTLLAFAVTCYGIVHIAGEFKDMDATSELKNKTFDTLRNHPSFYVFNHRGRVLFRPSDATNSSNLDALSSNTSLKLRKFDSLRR

[4] = target: Protocadherin alpha-4 (Pcdha4) of MLO-Y4 cells (mouse) (UniProt O88689); assay: as above
[5] = target: Fibronectin type III domain-containing protein 3B (Fndc3b) of MLO-Y4 cells (mouse) (UniProt Q6NWW9); assay: as above
[6] = target: Integrin beta-1 (Itgb1) of MLO-Y4 cells (mouse) (UniProt P09055); assay: as above
[7] = target: T4, CD81 antigen (Cd81) of MLO-Y4 cells (mouse) (UniProt P35762); assay: as above
T4 sequence (looked up): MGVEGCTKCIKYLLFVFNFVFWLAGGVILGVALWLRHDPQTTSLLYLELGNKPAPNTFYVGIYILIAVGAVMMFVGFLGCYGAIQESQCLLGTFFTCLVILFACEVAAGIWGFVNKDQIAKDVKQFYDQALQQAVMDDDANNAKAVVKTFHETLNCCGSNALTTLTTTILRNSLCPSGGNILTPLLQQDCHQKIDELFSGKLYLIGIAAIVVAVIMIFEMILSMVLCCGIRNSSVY

[8] = target: Membrane magnesium transporter 1 (Mmgt1) of MLO-Y4 cells (mouse) (UniProt Q8K273); assay: DTSSP cross-linking on MLO-Y4 cells, his-tag pull-down, TMT mass spectrometry; irisin channel
[9] = target: Protocadherin alpha-4 (Pcdha4) of MLO-Y4 cells (mouse) (UniProt O88689); assay: as above
[10] = target: Fibronectin type III domain-containing protein 3B (Fndc3b) of MLO-Y4 cells (mouse) (UniProt Q6NWW9); assay: as above
[11] = target: T4, CD81 antigen (Cd81) of MLO-Y4 cells (mouse); assay: as above
[12] = target: Membrane magnesium transporter 1 (Mmgt1) of MLO-Y4 cells (mouse) (UniProt Q8K273); assay: DTSSP cross-linking of his-tag ligand on MLO-Y4 cells, his-tag pull-down, TMT quantitative mass spectrometry; ratio to his-tag adipsin control
[13] = target: Protocadherin alpha-4 (Pcdha4) of MLO-Y4 cells (mouse) (UniProt O88689); assay: as above
[14] = target: Fibronectin type III domain-containing protein 3B (Fndc3b) of MLO-Y4 cells (mouse) (UniProt Q6NWW9); assay: as above
[15] = target: T4, CD81 antigen (Cd81) of MLO-Y4 cells (mouse); assay: as above

Sequence of Fibronectin type III domain-containing protein 3B (Fndc3b) of MLO-Y4 cells (mouse) (Q6NWW9 whole entry, the tested form may be a part): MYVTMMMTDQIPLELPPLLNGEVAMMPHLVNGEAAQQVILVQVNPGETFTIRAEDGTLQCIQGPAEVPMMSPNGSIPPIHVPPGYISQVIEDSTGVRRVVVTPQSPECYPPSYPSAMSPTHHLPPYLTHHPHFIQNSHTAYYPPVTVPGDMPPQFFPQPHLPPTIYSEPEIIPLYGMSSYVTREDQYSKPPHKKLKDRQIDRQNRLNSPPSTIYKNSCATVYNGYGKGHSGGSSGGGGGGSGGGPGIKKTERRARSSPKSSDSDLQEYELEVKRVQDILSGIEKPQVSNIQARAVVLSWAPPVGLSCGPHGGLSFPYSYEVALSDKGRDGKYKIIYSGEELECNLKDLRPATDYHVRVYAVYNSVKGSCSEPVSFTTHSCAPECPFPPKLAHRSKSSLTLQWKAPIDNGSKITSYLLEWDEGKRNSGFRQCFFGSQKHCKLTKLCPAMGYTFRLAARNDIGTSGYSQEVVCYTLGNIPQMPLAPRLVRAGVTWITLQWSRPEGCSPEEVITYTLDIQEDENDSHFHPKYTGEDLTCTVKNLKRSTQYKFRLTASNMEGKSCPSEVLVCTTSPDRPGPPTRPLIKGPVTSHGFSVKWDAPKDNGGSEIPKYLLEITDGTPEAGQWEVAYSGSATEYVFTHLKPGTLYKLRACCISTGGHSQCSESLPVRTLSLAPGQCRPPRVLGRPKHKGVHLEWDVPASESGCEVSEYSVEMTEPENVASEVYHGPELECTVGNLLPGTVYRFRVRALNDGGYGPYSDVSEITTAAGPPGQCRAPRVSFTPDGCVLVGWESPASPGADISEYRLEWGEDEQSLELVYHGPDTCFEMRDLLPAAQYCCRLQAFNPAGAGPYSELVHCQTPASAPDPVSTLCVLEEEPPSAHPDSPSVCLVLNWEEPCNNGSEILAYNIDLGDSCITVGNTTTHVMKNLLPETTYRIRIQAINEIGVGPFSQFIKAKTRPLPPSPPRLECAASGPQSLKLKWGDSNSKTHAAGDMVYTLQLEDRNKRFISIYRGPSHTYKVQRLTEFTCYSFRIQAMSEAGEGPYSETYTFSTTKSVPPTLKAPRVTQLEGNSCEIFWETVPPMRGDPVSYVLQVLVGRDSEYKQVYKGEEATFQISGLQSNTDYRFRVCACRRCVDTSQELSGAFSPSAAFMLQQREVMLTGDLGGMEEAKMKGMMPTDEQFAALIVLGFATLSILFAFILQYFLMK
Sequence of Protocadherin alpha-4 (Pcdha4) of MLO-Y4 cells (mouse) (O88689 other isoform, or with tags, fused parts or gaps): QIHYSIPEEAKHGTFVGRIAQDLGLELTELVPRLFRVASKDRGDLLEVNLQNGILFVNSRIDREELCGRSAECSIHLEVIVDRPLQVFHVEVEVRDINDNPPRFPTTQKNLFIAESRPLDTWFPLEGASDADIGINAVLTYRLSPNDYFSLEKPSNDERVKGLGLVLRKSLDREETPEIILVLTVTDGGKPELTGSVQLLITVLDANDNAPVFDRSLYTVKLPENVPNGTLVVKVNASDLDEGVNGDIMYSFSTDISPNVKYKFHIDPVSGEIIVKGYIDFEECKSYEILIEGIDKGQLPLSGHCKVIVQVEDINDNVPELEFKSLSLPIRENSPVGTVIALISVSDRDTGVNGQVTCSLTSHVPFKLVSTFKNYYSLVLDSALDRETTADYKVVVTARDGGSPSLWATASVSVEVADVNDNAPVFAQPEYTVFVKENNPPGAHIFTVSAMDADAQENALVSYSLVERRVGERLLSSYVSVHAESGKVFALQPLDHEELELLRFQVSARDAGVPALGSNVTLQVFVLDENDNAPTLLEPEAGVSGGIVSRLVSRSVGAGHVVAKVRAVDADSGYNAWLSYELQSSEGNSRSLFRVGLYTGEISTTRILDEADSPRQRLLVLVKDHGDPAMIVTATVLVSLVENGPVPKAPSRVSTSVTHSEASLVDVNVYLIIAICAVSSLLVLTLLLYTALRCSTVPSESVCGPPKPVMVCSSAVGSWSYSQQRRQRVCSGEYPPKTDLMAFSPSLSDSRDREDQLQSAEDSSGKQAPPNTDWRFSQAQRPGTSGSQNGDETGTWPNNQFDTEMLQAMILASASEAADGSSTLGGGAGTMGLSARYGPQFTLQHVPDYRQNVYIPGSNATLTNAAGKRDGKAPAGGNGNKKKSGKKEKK
Sequence of His-tag adipsin (R&D Systems, Cat. # AF1824-SP) (P00746 26-253): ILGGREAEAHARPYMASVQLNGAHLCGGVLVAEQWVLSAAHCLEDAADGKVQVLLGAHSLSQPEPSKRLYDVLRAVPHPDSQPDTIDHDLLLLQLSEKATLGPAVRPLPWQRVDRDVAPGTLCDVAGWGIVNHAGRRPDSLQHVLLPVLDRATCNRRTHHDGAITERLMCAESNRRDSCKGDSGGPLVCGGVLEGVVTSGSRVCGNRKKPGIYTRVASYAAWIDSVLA
Sequence of Integrin beta-1 (Itgb1) of MLO-Y4 cells (mouse) (P09055 21-798): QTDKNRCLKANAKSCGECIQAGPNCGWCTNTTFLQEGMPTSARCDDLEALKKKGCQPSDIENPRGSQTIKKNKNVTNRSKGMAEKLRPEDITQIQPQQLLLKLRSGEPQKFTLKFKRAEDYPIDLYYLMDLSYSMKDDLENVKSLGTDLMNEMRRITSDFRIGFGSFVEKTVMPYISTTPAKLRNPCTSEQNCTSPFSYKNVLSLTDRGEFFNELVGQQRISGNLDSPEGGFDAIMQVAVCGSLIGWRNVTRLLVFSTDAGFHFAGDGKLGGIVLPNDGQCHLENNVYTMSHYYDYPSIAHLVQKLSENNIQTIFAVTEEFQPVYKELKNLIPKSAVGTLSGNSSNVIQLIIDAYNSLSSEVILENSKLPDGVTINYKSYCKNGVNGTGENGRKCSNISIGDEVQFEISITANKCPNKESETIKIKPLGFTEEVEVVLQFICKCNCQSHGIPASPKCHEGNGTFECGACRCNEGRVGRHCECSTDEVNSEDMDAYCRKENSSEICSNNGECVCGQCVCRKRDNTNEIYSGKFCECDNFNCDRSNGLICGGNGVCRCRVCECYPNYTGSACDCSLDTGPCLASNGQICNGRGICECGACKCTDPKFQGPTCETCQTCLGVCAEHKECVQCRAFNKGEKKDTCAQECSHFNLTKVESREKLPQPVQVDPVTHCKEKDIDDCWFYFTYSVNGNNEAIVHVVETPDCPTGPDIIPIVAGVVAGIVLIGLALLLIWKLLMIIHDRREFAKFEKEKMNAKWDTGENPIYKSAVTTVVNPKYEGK

summed signal-to-noise value for TMT channel [1] | summed signal-to-noise value for TMT channel [2] | summed signal-to-noise value for TMT channel [3] | summed signal-to-noise value for TMT channel [4] | summed signal-to-noise value for TMT channel [5] | summed signal-to-noise value for TMT channel [6] | summed signal-to-noise value for TMT channel [7] | summed signal-to-noise value for TMT channel [8] | summed signal-to-noise value for TMT channel [9] | summed signal-to-noise value for TMT channel [10] | summed signal-to-noise value for TMT channel [11] | irsin/adipsin (TMT ratio) [12] | irsin/adipsin (TMT ratio) [13] | irsin/adipsin (TMT ratio) [14] | irsin/adipsin (TMT ratio) [15] | Substance
148 | 54.4 | 17.4 | 17.1 | 449 | 250 | 105 | – | – | – | – | – | – | – | – | His-tag adipsin (R&D Systems, Cat. # AF1824-SP)
– | – | – | – | – | – | – | 51.2 | 75.2 | 1290 | 427 | 2.94 | 4.39 | 2.88 | 4.05 | His-tag recombinant irisin (irisin (human/mouse) with a C-terminal 10 his tag, produced in HEK293 cells) (from UniProt Q8K3V5 60-171) (ligand)
